A short description of data set [1]: Effect of V300G, L305F, S306P on activity with CS0333 (FIG. 13). The data set is classed as biochemical. As to conditions: 1 mM ATP; 100 nM to 1 mM substrate; Bright-Glo buffer. The protocol:
FIG. 13 includes a representative graph of the effects of amino acid substitutions V300G, L305F, and S306P on enzyme activity with the CS0333 analog. Reagent compositions included […]+1 mM ATP+100 nM to 1 mM substrate in Bright-Glo™ buffer.

A short description of data set [2]: Inhibition of luciferase enzyme variants by dehydro-F-luciferin. The data set is classed as biochemical. As to conditions: for resistance to inhibition by dehydro F-luciferin: 1 μM F-luciferin, 1 mM ATP (FIG. 26); for inhibition by dehydro-F-luciferin relative to Ppe variant (SEQ ID NO: 1): Detection reagent buffer or Bright-Glo buffer (FIGS. 20, 21). On the procedure:
Reagent compositions include 0.022 μM-366.97 μM Dehydro F-luciferin titration, 1 mM ATP, 1 μM F-luciferin, and 0.005 mg/ml enzyme. […] Both amino acid substitutions L305F and S306P conferred improved resistance to the inhibitor individually and in combination.

Data set [3] is described as follows: E. coli lysate screen of epPCR/DNA shuffling variants with CS0280. The data set is classed as biochemical. As to conditions: Detection Reagent, 1 mM ATP, 500 μM substrate, 3 mins. The protocol: (§1) These experiments included lysing E. coli cells expressing each luciferase enzyme variant in Detection Reagent containing 1 mM ATP+500 μM substrate. The cell lysate was incubated at room temperature for 3 mins and luminescence was read. The raw luminescence reading was normalized to the on-plate luminescence of ATG-2889, which was used as a control in this screen.

The nature of data set [4]: E. coli lysate screen of epPCR/DNA shuffling variants with CS0333. The data set is classed as biochemical. The following applies: Detection Reagent, 1 mM ATP, 500 μM substrate, 3 mins. The protocol: as §1
A short description of data set [5]: Brightness of additional luciferase enzyme variants with CS0333. The data set is classed as biochemical. As to conditions: Table 7A, 1 mM CS0333. The method, boiled down:
(§2)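 Each variant at 0.005 mg/ml combined with 1 mM ATP plus 1 mM substrate in Bright-Glo or Detection Reagent buffer; luminescence recorded as relative brightness.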

Data set [6] can be described thus: Brightness of additional luciferase enzyme variants with CS0280. The format is biochemical. The following applies: Table 7A, 1 mM CS0280. The method, boiled down: as §2
Data set [7] can be described thus: Differential scanning fluorimetry (DSF) analysis. The data set is classed as physicochemical. The arrangement: key to DSF Tm: melting temperature in °C (heated 30-95 °C at 1 °C/min). As to conditions: Table 7A. In a few lines:
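Thermal melt with 5× final Sypro Orange: ramp 1° C/min from 30 to 95° C, reading each 60 s, derivative of fluorescence plotted by temperature. Luciferase variants were in 20 mM HEPES pH 7.5, 200 mM NaCl, 1 mM EDTA; other enzymes in 50 mM HEPES pH 7.5, 100 mM NaCl, 2 mM EDTA.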
(In general: In DSF a fluorescence change marks the thermal transition of the protein.)

Data set [8] can be described thus: Kinetic analysis of Ppe variant, ATG-3707, ATG-4117 with D/L-luciferin. The format is biochemical. The protocol: (§3) Kinetic tests of these luciferase enzyme variants were also conducted. […] Reagent compositions included 0.005 mg/ml luciferase enzyme variant+1 mM ATP, and 0.1 fM to 1 mM substrate in Bright-Glo™ (BG) or Detection Reagent (DR) buffers. The composition was incubated for 3 mins and read on GloMax® Multi+platform.
(§4) Table 8 below includes representative results of kinetic analysis of the thermostable luciferase variants of Ppe (SEQ ID NO: 1), ATG-3707, and ATG-4117. The Ppe variant (SEQ ID NO: 1) was tested with D/L-luciferin, and ATG-3707, and ATG-4117 were tested with CS0280 and CS0333.

Data set [9] can be described thus: Kinetic analysis of ATG-3707, ATG-4117 with CS0280. The data set is classed as biochemical. The protocol:
as §3, §4

Data set [10] is described as follows: Kinetic analysis of ATG-3707, ATG-4117 with CS0333. The format is biochemical. On the procedure: as §3, §4

Substitutions are numbered along the chain they refer to. In names and notes the source's numbering stands.

In general, Km refers to the concentration of substrate that gives half-maximal velocity.

B1: ATG-3549: SEQ ID NO: 14; H244W+T344A+I396K+V300G (protein)
chain: MADKNILYGPEPFYPLEDGTAGEQMFDALSRYAAIPGCIALTNAHTKENVLYEEFLKLSCRLAESFKKYGLKQNDTIAVCSENSLQFFLPVIASLYLGIIVAPVNDKYIERELIHSLGIVKPRIVFCSKNTFQKVLNVKSKLKSIETIIILDLNEDLGGYQCLNNFISQNSDSNLDVKKFKPYSFNRDDQVASIMFSSGTTGLPKGVMLTHKNIVARFSIAKDPTFGNAINPTSAILTVIPFHWGFGMMTTLGYFTCGFRVVLMHTFEEKLFLQSLQDYKVESTLLVPTLMAFLAKSALGEKYDLSHLKEIASGGAPLSKEIGEMVKKRFKLNFVRQGYGLTEATSAVLITPKGDAKPGSTGKIVPLHAVKVVDPTTGKILGPNEPGELYFKGPMKMKGYYNNEEATKAIIDNDGWLRSGDIAYYDNDGHFYIVDRLKSLIKYKGYQVAPAEIEGILLQHPYIVDAGVTGIPDEAAGELPAAGVVVQTGKYLNEQIVQDYVASQVSTAKWLRGGVKFLDEIPKGSTGKIDRKVLRQMLEKHTNGHHHHHHHH
On to B1, for which the “activity with CS0333 relative to Ppe variant (SEQ ID NO: 1)” value in [1] was “improved activity”.

B2: ATG-3551: SEQ ID NO: 16; H244W+T344A+I396K+V300G+S306P (protein)
chain: B1 chain with S306P
Turning to B2, the “activity with CS0333 relative to Ppe variant (SEQ ID NO: 1)” value in data set [1] was “improved activity”. Also, in data set [2], the “resistance to inhibition by dehydro F-luciferin” value (“resistance to inhibition” below) is “conferred resistance to inhibition by dehydro F-luciferin”.

B3: C4609F7: SEQ ID NO: 64; H244W+T344A+I396K+Y108F+V262A+L305F (protein)
chain: B1 chain with Y108F, V262A, G300V, L305F
For B3, the “Normalized luminescence (Mutant RLU/ATG2889 RLU) with CS0280” value in data set [3] worked out at 3.90. For the same molecule, in data set [4], the “Normalized luminescence (Mutant RLU/ATG2889 RLU) with CS0333” value is 6.04.

B4: C4581C3: SEQ ID NO: 55; H244W+T344A+I396K+I109M+S193L (protein)
chain: B1 chain with I109M, S193L, G300V
Take B4: the “Normalized luminescence (Mutant RLU/ATG2889 RLU) with CS0280” value in [3] is 3.88. Besides, the “Normalized luminescence (Mutant RLU/ATG2889 RLU) with CS0333” value in data set [4] came to 1.04.

B5: C4604A11: SEQ ID NO: 62; H244W+T344A+I396K+I109M+A316S (protein)
chain: B1 chain with I109M, G300V, A316S
In the case of B5, the “Normalized luminescence (Mutant RLU/ATG2889 RLU) with CS0280” value in [3] turned out to be 12.16. Besides, the “Normalized luminescence (Mutant RLU/ATG2889 RLU) with CS0333” value in data set [4] worked out at 2.41.

B6: ATG-2624: SEQ ID NO: 3; I240L+Y254S+T344A+I396K (protein)
chain: B1 chain with I240L, W244H, Y254S, G300V
Take B6: the “inhibition by dehydro-F-luciferin relative to Ppe variant (SEQ ID NO: 1)” value in data set [2] is “inhibited by dehydro-F-luciferin, but less so”.

B7: C4580B10: SEQ ID NO: 53; H244W+T344A+I396K+K107Q+S193T+V262A (protein)
chain: B1 chain with K107Q, S193T, V262A, G300V
Take B7: the “Normalized luminescence (Mutant RLU/ATG2889 RLU) with CS0280” value in [3] is 9.35. The “Normalized luminescence (Mutant RLU/ATG2889 RLU) with CS0333” value in data set [4] came to 4.64.

B8: C4580E9: SEQ ID NO: 54; H244W+T344A+I396K+N228D+V287I (protein)
chain: B1 chain with N228D, V287I, G300V
As to B8, in data set [3], the “Normalized luminescence (Mutant RLU/ATG2889 RLU) with CS0280” value is on record as 4.00. Further, the “Normalized luminescence (Mutant RLU/ATG2889 RLU) with CS0333” value in data set [4] amounted to 6.51.

B9: C7573H3: SEQ ID NO: 70; H244W+T344A+I396K+S193A+N228D+L305F+S306P+I109V+A316W (protein)
chain: B1 chain with G300V, L305F, A344T, K396I
For the molecule B9, in [5] (Bright-Glo buffer), the “Fold-improvement over ATG3707, CS0333 BG” value was found to be 4.35. Further, the “Fold-improvement over ATG3707, CS0333 DR” value in data set [5] (Detection Reagent buffer) turned out to be 3.36. Also, the “Fold-improvement over ATG3707, CS0280 BG” value in data set [6] (Bright-Glo buffer) is reported as 6.04. For the same molecule, the “Fold-improvement over ATG3707, CS0280 DR” value in [6] (Detection Reagent buffer) is 7.48. Further, the “DSF Tm” value in data set [7] turned out to be 61. The Km in [8] (BrightGlo) worked out at 0.0702 µM; in data set [8] (Detection Reagent) it was 2.65 µM; in data set [9] (BrightGlo), 13 µM; in [9] (Detection Reagent), 419 µM; in data set [10] (BrightGlo), 12.4 µM; in [10] (Detection Reagent) it was 758 µM. Besides, the “Vmax (RLU)” value is listed as 719,605 RLU in data set [8] (BrightGlo); 817,287 RLU in data set [8] (Detection Reagent); 7,188,109 RLU in data set [9] (BrightGlo); 7,879,793 RLU in data set [9] (Detection Reagent); 1,601,921 RLU in data set [10] (BrightGlo); 124,964 RLU in [10] (Detection Reagent).

B10: C4610H6: SEQ ID NO: 66; H244W+T344A+I396K+K107Q+N228D (protein)
chain: B1 chain with K107Q, N228D, G300V
On to B10, for which the “Normalized luminescence (Mutant RLU/ATG2889 RLU) with CS0280” value in data set [3] was 3.67. Moreover, the “Normalized luminescence (Mutant RLU/ATG2889 RLU) with CS0333” value in [4] is listed as 4.15.

B11: C4610C10: SEQ ID NO: 65; H244W+T344A+1396K+S306P (protein)
chain: B1 chain with G300V, S306P
As for B11, the “Normalized luminescence (Mutant RLU/ATG2889 RLU) with CS0280” value in [3] worked out at 3.60. Moreover, the “Normalized luminescence (Mutant RLU/ATG2889 RLU) with CS0333” value in data set [4] stood at 4.32.

B12: ATG-3553: SEQ ID NO: 18; H244W+T344A+I396K+L305P+S306P (protein)
chain: B1 chain with G300V, L305F, S306P
As to B12, the “activity with CS0333 relative to Ppe variant (SEQ ID NO: 1)” value in [1] is “improved activity”. In data set [2], the “resistance to inhibition” value was “conferred resistance to inhibition by dehydro F-luciferin”.

B13: ATG-3552: SEQ ID NO: 17; H244W+T344A+I396K+V300G+L305P+S306P (protein)
chain: B1 chain with L305F, S306P
Turning to B13, the “activity with CS0333 relative to Ppe variant (SEQ ID NO: 1)” value in [1] was “improved activity”. Further, the “resistance to inhibition” value in data set [2] is recorded as “conferred resistance to inhibition by dehydro F-luciferin”.

B14: ATG-3550: SEQ ID NO: 15; H244W+T344A+I396K+V300G+L305F (protein)
chain: B1 chain with L305F
Take B14: in data set [1], the “activity with CS0333 relative to Ppe variant (SEQ ID NO: 1)” value was “highest activity”. Also, the “resistance to inhibition” value in data set [2] was “conferred resistance to inhibition by dehydro F-luciferin”.

B15: C4588H8: SEQ ID NO: 58; H244W+T344A+I396K+K107Q+L305F (protein)
chain: B1 chain with K107Q, G300V, L305F
Turning to B15, in data set [3], the “Normalized luminescence (Mutant RLU/ATG2889 RLU) with CS0280” value is on record as 6.56. Moreover, in data set [4], the “Normalized luminescence (Mutant RLU/ATG2889 RLU) with CS0333” value amounted to 3.90.

B16: ATG-2625: SEQ ID NO: 4; N74N+H244R+V300G+I396K (protein)
chain: B1 chain with W244R, A344T
For the molecule B16, the “inhibition by dehydro-F-luciferin relative to Ppe variant (SEQ ID NO: 1)” value in data set [2] is recorded as “inhibited by dehydro-F-luciferin, but less so”.

B17: C4584D9: SEQ ID NO: 56; H244W+T344A+I396K+I109M+S193L+L294H (protein)
chain: B1 chain with I109M, S193L, L294H, G300V
As for B17, the “Normalized luminescence (Mutant RLU/ATG2889 RLU) with CS0280” value in [3] was determined as 12.41. Further, in data set [4], the “Normalized luminescence (Mutant RLU/ATG2889 RLU) with CS0333” value is 2.67.

B18: C4589D5: SEQ ID NO: 59; H244W+T344A+I396K+A40A+K107Q+S193T+A316S (protein)
chain: B1 chain with K107Q, S193T, G300V, A316S
On to B18, for which the “Normalized luminescence (Mutant RLU/ATG2889 RLU) with CS0280” value in [3] stood at 12.42. Moreover, the “Normalized luminescence (Mutant RLU/ATG2889 RLU) with CS0333” value in data set [4] came out at 3.79.

The values above are taken from patent publication US12545899B2, “Luciferase enzymes for use with thermostable luciferins in bioluminescent assays” (Promega Corporation, priority 2018, dated 2026).
